According to publication PMC11563869:

How the values were obtained:
[1] = biological target: GluA2-γ2_(FRET) (GluA2_(FRET) fused through a GGS linker to full-length mouse TARPγ2) (rat | mouse) (UniProt O88602); test: FRET or BRET; single-molecule FRET between Alexa-555 and Alexa-647 on Cys467 of two subunits; receptors from detergent-solubilised HEK293T cells held on the slide by antibody (in situ immunoprecipitation); 1 mM Glu + 100 µM CTZ
[2] = biological target: GluA2-γ2_(FRET) (GluA2_(FRET) fused through a GGS linker to full-length mouse TARPγ2) (rat | mouse) (UniProt O88602); test: FRET or BRET; single-molecule FRET between Alexa-555 and Alexa-647 on Cys467 of two subunits; receptors from detergent-solubilised HEK293T cells held on the slide by antibody (in situ immunoprecipitation); 1 mM Glu + 100 µM GYKI-52466

FRET efficiency (highest-occurring state, with CTZ) [1]: 0.93 | FRET efficiency (highest-occurring state, with GYKI-52466) [2]: 0.82
Substance: GluA2-γ2_(FRET) (GluA2_(FRET) fused through a GGS linker to full-length mouse TARPγ2) (from UniProt O88602 1-323) (receptor)
